The record followed here is patent publication US9322000B2, “Methanol dehydrogenase enzymes from Bacillus” (Sinvent AS, priority 2012, dated 2016).

Data set [1] in a line: Formaldehyde reductase assay of purified MDH proteins. Type of data set: biochemical. The conditions noted are these: 45° C., formaldehyde reductase activity; for Km: read-out: Km, variable substrate Formaldehyde. On the procedure:
(§1) Alcohol dehydrogenase activities were measured spectrophotometrically essentially as described previously (Hektor, Kloosterman et al. (2002) Chem 277(49): 46966-46973) and the reaction mixture contained: 100 mM Glycine-KOH pH 9.5 (unless otherwise stated), 5 mM MgSO4, 0.5 mM NAD^+ and 500 mM alcohol (methanol, ethanol, propanol, 1,3-propanediol, or butanol). NAD^+ was substituted with equal concentrations of NADP^+, FMN^+, and FAD^+, when indicated. The reaction mixture for measurements of formaldehyde reductase activity contained: 50 mM Potassium-phosphate buffer pH=6.7, 0.15 mM NADH, 1 mM DTT and 11.6 mM (0.1-116 mM) formaldehyde. The assay components were mixed in the cuvette and pre-warmed to 45° C., unless otherwise stated. The reactions were started by addition of 5-40 μg of the purified MDH proteins, and the production of NADH was monitored at 340 nm for 4 minutes. One unit of MDH activity was defined as the amount of enzyme needed to produce 1 μmol NADH per minute under the conditions described above. Purified Act (0.1-40 μg) or NudF (20 μg) proteins were added to the reaction mixtures as indicated in the text.
The purified MDH and Act proteins (20 μg) were used in the kinetic experiments performing the methanol dehydrogenase and the formaldehyde dehydrogenase assays essentially as described above. […] For determination of the Km for NAD^+ (Km,NAD+) and Vmax, the methanol concentration was kept constant at a saturating level (500 mM), while the concentration of NAD^+ was varied (5-1000 μM). […] Act (20 μg) was added to the reaction mixtures for determination of Kμ,MεOH and Vmax values in the presence of this activator, as indicated in the text. In general, the slopes of activity versus time were linear in the measured period (data not shown). Km and Vmax values were calculated by using nonlinear regression with the Microsoft Excel solver-tool to fit the measured data to the Michaelis-Menten equation, as described previously (Jakobsen et al., (2009) Appl Environ Microbiol 75(3): 652-661). The values obtained from the regression were then compared to the values obtained from Lineweaver-Burk and Hanes-Woolf plots to ensure that the global minimum, not a local minimum, had been found.

The nature of data set [2]: Heat stability: pre-incubation of purified MDHs at 45° C. or 60° C. prior to the enzyme assay. Format: biochemical. The conditions noted are these: preincubation at 60° C.; compared to the remaining MDHs. Here is the method: FIG. 5. (A) Temperature stability of MGA3 Mdh, Mdh2 and Mdh3 was tested in vitro. Enzymes were incubated at 45° C. or at 60° C. prior to the enzyme assay. (B) Temperature stability of PB1 Mdh, Mdh1 and Mdh2 was tested in vitro. Enzymes were incubated at 45° C. or at 60° C. prior to the enzyme assay.
The heat stability of the six MDHs was tested by pre-incubation of the proteins at 45° C. and 60° C. and samples were taken at different time points for enzyme assays. As expected, all enzymes retained essentially all catalytic activity upon preincubations at 45° C. (FIG. 5). […] A selection of the experiments was repeated in the presence of equal amounts of purified Act, and this had no effect on temperature stability for any of the MDHs (data not shown).

The nature of data set [3]: In vivo Mdh activity in cell suspensions of recombinant E. coli (formaldehyde accumulating in supernatant). Format: cell-based. The conditions noted are these: E. coli cell suspension. The text has this:
The genes coding for Mdh and the Mdh activator protein Act were amplified from pET21a-plasmids harboring genes from B. methanolicus strains MGA3 (mdh-MGA3, mdh2-MGA3, mdh3-MGA3 and act-MGA3) and PB1 (mdh-PB1, mdh1-PB1 and mdh2-PB1). The genes were then cloned either into the pSEVA424 plasmid (mdh genes) or in the pSEVA131 plasmid (act gene). For cloning of mdh-MGA3, mdh-PB1, mdh1-PB1 and act-MGA3, EcoRI and HindIII restrictions sites were used, while mdh2-MGA3, mdh2-PB1 and mdh3-MGA3 were cloned by using EcoRI and PstI restriction sites. The resulting expression vectors were transformed into electrocompetent wt E. coli K-12 (BW25113) and into E. coli K-12 (BW25113) with a deleted frmA gene.
Expression Experiments For expression experiments, the cells were cultivated in either Luria-Bertani (LB) medium for in vitro assays or in M9 medium for in vivo assays both containing 20 μg/ml streptomycin for pSEVA424. When Act was co-expressed the medium was supplemented with 100 μg/ml ampicillin. Expression was induced when cells reached OD 0.5 (for in vitro tests) or OD 1 (for in vivo tests) by adding 0.1 mM IPTG (final concentration) for 6 hours. Cells were then harvested by centrifugation. For in vitro assays, crude cell extract was prepared by lysing the cells in a French press following ultracentrifugation. Alternatively, cells were resuspended in M9-medium without glucose for in vivo activity measurements. Enzyme Assays
In vivo measurements of Mdh activity: For determination of Mdh activity in cell suspensions, cells were harvested after IPTG induction, washed and resuspended in M9-medium without glucose and IPTG. OD600 was set to 1 for normalization. […] The assay was started by addition of 1 M methanol and subsequent measurement of accumulating formaldehyde in the supernatant resulting from the methanol dehydrogenase catalyzed oxidation of methanol. The calculated activities were based on the assumption that 1 l of an OD1 culture contains 0.3 g biomass of which 50% is protein.

Data set [4] can be described thus: Alcohol dehydrogenase assay of purified MDH proteins with ethanol as substrate. Format: biochemical. On the procedure: as §1
In order to establish reliable assay conditions for comparative biochemical characterizations, the six MDH proteins were analysed for pH and temperature optima. […]

Entries after “also recorded” stand apart in the source; their conditions may differ.

B1: Mdh3-MGA3: NAD-dependent methanol dehydrogenase encoded by chromosomal gene mdh3 of B. methanolicus MGA3, SEQ ID NO. 4 (protein)
chain: MKNTQSAFYMPSVNLFGAGSVNEVGTRLAGLGVKKALLVTDAGLHSLGLSEKIAGIIREAGVEVAIFPKAEPNPTDKNVAEGLEAYNAENCDSIVTLGGGSSHDAGKAIALVAANGGTIHDYEGVDVSKKPMVPLIAINTTAGTGSELTKFTIITDTERKVKMAIVDKHVTPTLSINDPELMVGMPPSLTAATGLDALTHAIEAYVSTGATPITDALAIQAIKIISKYLPRAVANGKDIEAREQMAFAQSLAGMAFNNAGLGYVHAIAHQLGGFYNFPHGVCNAILLPHVCRFNLISKVERYAEIAAFLGENVDGLSTYEAAEKAIKAIERMARDLNIPKGFKELGAKEEDIETLAKNAMNDACALTNPRKPKLEEVIQIIKNAM
modifications: Bacillus methanolicus MGA3
On to B1, for which the “Vmax, variable substrate Formaldehyde” value in data set [1] is 5 U/mg. For the same molecule, the Km in data set [1] worked out at 15 mM. Also, the “temperature stability in vitro (in words)” value in data set [2] was “Higher Temperature Stabilities; also recorded: improved thermostability”. The In vivo activity stood at 11 mU/mg in data set [3] (37° C., +Act); 24 mU/mg in data set [3] (37° C., −Act); 24 mU/mg in data set [3] (42° C., +Act); 31 mU/mg in data set [3] (42° C., −Act).

B2: Mdh-MGA3: previously reported plasmid pBM19-encoded NAD-dependent methanol dehydrogenase of B. methanolicus MGA3, SEQ ID NO. 8 (protein)
chain: MTTNFFIPPASVIGRGAVKEVGTRLKQIGAKKALIVTDAFLHSTGLSEEVAKNIREAGVDVAIFPKAQPDPADTQVHEGVDVFKQENCDSLVSIGGGSSHDTAKAIGLVAANGGRINDYQGVNSVEKPVVPVVAITTTAGTGSETTSLAVITDSARKVKMPVIDEKITPTVAIVDPELMVKKPAGLTIATGMDALSHAIEAYVAKGATPVTDAFAIQAMKLINEYLPKAVANGEDIEAREKMAYAQYMAGVAFNNGGLGLVHSISHQVGGVYKLQHGICNSVNMPHVCAFNLIAKTERFAHIAELLGENVAGLSTAAAAERAIVALERINKSFGIPSGYAEMGVKEEDIELLAKNAYEDVCTQSNPRVPTVQDIAQIIKNAM
modifications: Bacillus methanolicus MGA3
Regarding B2, the “Vmax, variable substrate Formaldehyde” value in data set [1] is 1.4 U/mg. In addition, the Km in data set [1] was 1 mM. Besides, in data set [4] (B. subtilis NudF added), the “stimulation of Mdh activity with NudF” value is given as “about 8 fold”. Moreover, in data set [4] (MDH and Act 1:1), the “increase of catalytic activity in the presence of Act” value is “about 8 fold”. In data set [2], the “temperature stability in vitro (in words)” value is “only moderate negative effects”. Further, the In vivo activity in data set [3] (37° C., +Act) is recorded as 1 mU/mg; in data set [3] (37° C., −Act), 1 mU/mg; in data set [3] (42° C., +Act), 1 mU/mg; in data set [3] (42° C., −Act), 3 mU/mg.

B3: Mdh2-MGA3: NAD-dependent methanol dehydrogenase encoded by chromosomal gene mdh2 of B. methanolicus MGA3, SEQ ID NO. 2 (protein)
chain: MTNTQSAFFMPSVNLFGAGSVNEVGTRLADLGVKKALLVTDAGLHGLGLSEKISSIIRAAGVEVSIFPKAEPNPTDKNVAEGLEAYNAENCDSIVTLGGGSSHDAGKAIALVAANGGKIHDYEGVDVSKEPMVPLIAINTTAGTGSELTKFTIITDTERKVKMAIVDKHVTPTLSINDPELMVGMPPSLTAATGLDALTHAIEAYVSTGATPITDALAIQAIKIISKYLPRAVANGKDIEAREQMAFAQSLAGMAFNNAGLGYVHAIAHQLGGFYNFPHGVCNAVLLPYVCRFNLISKVERYAEIAAFLGENVDGLSTYDAAEKAIKAIERMAKDLNIPKGFKELGAKEEDIETLAKNAMKDACALTNPRKPKLEEVIQIIKNAM
modifications: Bacillus methanolicus MGA3
As for B3, in data set [1], the “Vmax, variable substrate Formaldehyde” value stood at 1.5 U/mg. For the same molecule, the Km in data set [1] stood at 5 mM. Moreover, the In vivo activity in data set [3] (37° C., +Act) was found to be 9 mU/mg; in data set [3] (37° C., −Act), 32 mU/mg; in data set [3] (42° C., +Act), 11.3 mU/mg; in data set [3] (42° C., −Act), 45 mU/mg.
